From US20030203373A1 (priority 2002, published 2003)
Values belong to the binder of their own block, whether it stands above or below them.

Tests used:
[1] = biological target: T1, angiotensin-converting-enzyme derived from pig kidney (pig) (UniProt F1RRW5); assay: cell-based or functional assay
T1 sequence (looked up): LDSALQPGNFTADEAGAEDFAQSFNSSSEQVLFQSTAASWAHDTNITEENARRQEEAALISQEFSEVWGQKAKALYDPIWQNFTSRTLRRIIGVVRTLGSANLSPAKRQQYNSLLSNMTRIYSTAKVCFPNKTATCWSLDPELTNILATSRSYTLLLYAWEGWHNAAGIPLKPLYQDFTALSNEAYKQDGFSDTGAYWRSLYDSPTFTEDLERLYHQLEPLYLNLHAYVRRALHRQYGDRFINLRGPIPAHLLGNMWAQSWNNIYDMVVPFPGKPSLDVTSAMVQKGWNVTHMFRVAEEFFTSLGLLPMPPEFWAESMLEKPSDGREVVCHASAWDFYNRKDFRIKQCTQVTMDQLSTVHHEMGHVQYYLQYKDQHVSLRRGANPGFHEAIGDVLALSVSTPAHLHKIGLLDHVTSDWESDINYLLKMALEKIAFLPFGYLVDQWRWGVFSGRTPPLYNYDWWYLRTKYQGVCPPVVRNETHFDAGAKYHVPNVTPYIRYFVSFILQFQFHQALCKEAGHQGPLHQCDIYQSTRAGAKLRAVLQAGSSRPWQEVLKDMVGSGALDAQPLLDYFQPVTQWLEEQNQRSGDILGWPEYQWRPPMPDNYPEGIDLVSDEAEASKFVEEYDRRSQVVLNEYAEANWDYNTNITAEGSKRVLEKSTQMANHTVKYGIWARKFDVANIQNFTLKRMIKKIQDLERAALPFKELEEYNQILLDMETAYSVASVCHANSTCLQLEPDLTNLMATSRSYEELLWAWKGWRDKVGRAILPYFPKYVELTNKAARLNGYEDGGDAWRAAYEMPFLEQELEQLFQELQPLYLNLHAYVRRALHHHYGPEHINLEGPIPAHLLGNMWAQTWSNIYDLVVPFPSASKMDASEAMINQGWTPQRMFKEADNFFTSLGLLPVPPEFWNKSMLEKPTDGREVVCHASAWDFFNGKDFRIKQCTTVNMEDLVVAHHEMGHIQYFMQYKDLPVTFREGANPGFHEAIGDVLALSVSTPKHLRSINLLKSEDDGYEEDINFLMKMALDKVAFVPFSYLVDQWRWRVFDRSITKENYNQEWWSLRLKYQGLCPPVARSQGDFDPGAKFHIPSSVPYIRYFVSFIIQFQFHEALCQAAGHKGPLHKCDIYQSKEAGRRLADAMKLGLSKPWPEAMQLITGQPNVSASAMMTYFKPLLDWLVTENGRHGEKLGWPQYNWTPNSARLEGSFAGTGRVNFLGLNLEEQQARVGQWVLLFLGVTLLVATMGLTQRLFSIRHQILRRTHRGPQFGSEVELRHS

[2] = biological target: T2, angiotensin-converting enzyme (ACE) from pig kidney (EC 3.4.15.1 (Sigma)) (pig) (UniProt F1RRW5); assay: cell-based or functional assay
T2 sequence (looked up): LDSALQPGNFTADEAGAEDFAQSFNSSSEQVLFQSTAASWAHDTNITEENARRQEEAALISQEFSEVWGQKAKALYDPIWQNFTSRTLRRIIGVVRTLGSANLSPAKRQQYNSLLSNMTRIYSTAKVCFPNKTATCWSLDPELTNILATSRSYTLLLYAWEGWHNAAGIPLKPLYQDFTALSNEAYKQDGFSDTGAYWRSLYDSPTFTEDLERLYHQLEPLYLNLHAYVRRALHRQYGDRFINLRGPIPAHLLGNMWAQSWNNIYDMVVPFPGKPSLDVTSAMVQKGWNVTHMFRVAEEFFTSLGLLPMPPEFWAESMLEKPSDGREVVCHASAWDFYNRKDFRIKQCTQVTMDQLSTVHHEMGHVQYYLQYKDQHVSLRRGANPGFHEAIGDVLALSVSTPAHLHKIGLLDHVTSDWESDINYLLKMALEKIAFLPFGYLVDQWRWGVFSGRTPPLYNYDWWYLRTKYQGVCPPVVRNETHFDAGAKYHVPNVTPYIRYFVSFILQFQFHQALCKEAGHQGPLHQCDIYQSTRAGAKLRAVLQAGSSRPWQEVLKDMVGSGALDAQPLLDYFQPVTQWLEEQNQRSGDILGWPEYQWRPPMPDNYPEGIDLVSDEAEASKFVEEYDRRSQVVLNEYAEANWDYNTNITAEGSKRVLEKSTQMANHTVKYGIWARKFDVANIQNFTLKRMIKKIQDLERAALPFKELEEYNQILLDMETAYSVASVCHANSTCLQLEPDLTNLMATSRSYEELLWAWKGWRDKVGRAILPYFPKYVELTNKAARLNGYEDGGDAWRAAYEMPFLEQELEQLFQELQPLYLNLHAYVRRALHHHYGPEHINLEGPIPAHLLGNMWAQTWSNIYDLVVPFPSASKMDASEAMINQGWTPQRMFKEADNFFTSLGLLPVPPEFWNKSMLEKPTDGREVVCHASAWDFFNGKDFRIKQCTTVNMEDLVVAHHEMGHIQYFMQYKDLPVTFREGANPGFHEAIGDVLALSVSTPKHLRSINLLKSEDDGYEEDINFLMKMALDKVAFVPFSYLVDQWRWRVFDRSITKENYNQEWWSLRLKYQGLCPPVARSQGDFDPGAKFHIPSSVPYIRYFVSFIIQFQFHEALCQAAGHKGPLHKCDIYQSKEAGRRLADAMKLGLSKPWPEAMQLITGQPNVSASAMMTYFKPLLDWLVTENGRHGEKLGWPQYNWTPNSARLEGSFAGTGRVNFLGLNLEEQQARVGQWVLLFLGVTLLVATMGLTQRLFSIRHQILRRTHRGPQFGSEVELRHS

- IC50, ACE inhibition [1]: > 300 µM
Binder: QVLSEPNEEAGAALSPLPEVPP (N-terminal pyroglutamate) [S492]

- % inhibition of ACE, 0.39 µM inhibitor, row A [2]: 9.98%
- % inhibition of ACE, 0.39 µM inhibitor, row B [2]: 5.85%
- % inhibition of ACE, 0.39 µM inhibitor, row C [2]: 4.63%
- % inhibition of ACE, 0.39 µM inhibitor, row D [2]: -9.77%
- % inhibition of ACE, 0.78125 µM inhibitor, row A [2]: 12.8%
- % inhibition of ACE, 0.78125 µM inhibitor, row B [2]: 18.5%
- % inhibition of ACE, 0.78125 µM inhibitor, row C [2]: 6.03%
- % inhibition of ACE, 0.78125 µM inhibitor, row D [2]: 2.73%
- % inhibition of ACE, 1.5625 µM inhibitor, row A [2]: 14.3%
- % inhibition of ACE, 1.5625 µM inhibitor, row B [2]: 25.6%
- % inhibition of ACE, 1.5625 µM inhibitor, row C [2]: 11.2%
- % inhibition of ACE, 1.5625 µM inhibitor, row D [2]: 4.98%
- % inhibition of ACE, 3.125 µM inhibitor, row A [2]: 20.4%
- % inhibition of ACE, 3.125 µM inhibitor, row B [2]: 18.6%
- % inhibition of ACE, 3.125 µM inhibitor, row C [2]: 16.3%
- % inhibition of ACE, 3.125 µM inhibitor, row D [2]: 12.7%
- % inhibition of ACE, 6.25 µM inhibitor, row A [2]: 30.6%
- % inhibition of ACE, 6.25 µM inhibitor, row B [2]: 28.8%
- % inhibition of ACE, 6.25 µM inhibitor, row C [2]: 25.2%
- % inhibition of ACE, 6.25 µM inhibitor, row D [2]: 22.6%
- % inhibition of ACE, 12.5 µM inhibitor, row A [2]: 36.8%
- % inhibition of ACE, 12.5 µM inhibitor, row B [2]: 37.2%
- % inhibition of ACE, 12.5 µM inhibitor, row C [2]: 35.7%
- % inhibition of ACE, 12.5 µM inhibitor, row D [2]: 31.6%
- % inhibition of ACE, 25 µM inhibitor, row A [2]: 55.7%
- % inhibition of ACE, 25 µM inhibitor, row B [2]: 54.8%
- % inhibition of ACE, 25 µM inhibitor, row C [2]: 56.7%
- % inhibition of ACE, 25 µM inhibitor, row D [2]: 54.5%
- % inhibition of ACE, 50 µM inhibitor, row A [2]: 69.5%
- % inhibition of ACE, 50 µM inhibitor, row B [2]: 68.1%
- % inhibition of ACE, 50 µM inhibitor, row C [2]: 64.2%
- % inhibition of ACE, 50 µM inhibitor, row D [2]: 62.3%
- % inhibition of ACE, 100 µM inhibitor, row A [2]: 81.8%
- % inhibition of ACE, 100 µM inhibitor, row B [2]: 80.4%
- % inhibition of ACE, 100 µM inhibitor, row C [2]: 78.9%
- % inhibition of ACE, 100 µM inhibitor, row D [2]: 77.8%
- % inhibition of ACE, 200 µM inhibitor, row A [2]: 89.3%
- % inhibition of ACE, 200 µM inhibitor, row B [2]: 88.5%
- % inhibition of ACE, 200 µM inhibitor, row C [2]: 88.4%
- % inhibition of ACE, 200 µM inhibitor, row D [2]: 87.9%
- fluorescence (ACE activity), 0.39 µM inhibitor, row A [2]: 813000
- fluorescence (ACE activity), 0.39 µM inhibitor, row B [2]: 850000
- fluorescence (ACE activity), 0.39 µM inhibitor, row C [2]: 861000
- fluorescence (ACE activity), 0.39 µM inhibitor, row D [2]: 990000
- fluorescence (ACE activity), 0.78125 µM inhibitor, row A [2]: 788000
- fluorescence (ACE activity), 0.78125 µM inhibitor, row B [2]: 737000
- fluorescence (ACE activity), 0.78125 µM inhibitor, row C [2]: 848000
- fluorescence (ACE activity), 0.78125 µM inhibitor, row D [2]: 878000
- fluorescence (ACE activity), 1.5625 µM inhibitor, row A [2]: 774000
- fluorescence (ACE activity), 1.5625 µM inhibitor, row B [2]: 673000
- fluorescence (ACE activity), 1.5625 µM inhibitor, row C [2]: 803000
- fluorescence (ACE activity), 1.5625 µM inhibitor, row D [2]: 858000
- fluorescence (ACE activity), 3.125 µM inhibitor, row A [2]: 720000
- fluorescence (ACE activity), 3.125 µM inhibitor, row B [2]: 736000
- fluorescence (ACE activity), 3.125 µM inhibitor, row C [2]: 756000
- fluorescence (ACE activity), 3.125 µM inhibitor, row D [2]: 789000
- fluorescence (ACE activity), 6.25 µM inhibitor, row A [2]: 628000
- fluorescence (ACE activity), 6.25 µM inhibitor, row B [2]: 644000
- fluorescence (ACE activity), 6.25 µM inhibitor, row C [2]: 676000
- fluorescence (ACE activity), 6.25 µM inhibitor, row D [2]: 699000
- fluorescence (ACE activity), 12.5 µM inhibitor, row A [2]: 573000
- fluorescence (ACE activity), 12.5 µM inhibitor, row B [2]: 668000
- fluorescence (ACE activity), 12.5 µM inhibitor, row C [2]: 583000
- fluorescence (ACE activity), 12.5 µM inhibitor, row D [2]: 619000
- fluorescence (ACE activity), 25 µM inhibitor, row A [2]: 402000
- fluorescence (ACE activity), 25 µM inhibitor, row B [2]: 411000
- fluorescence (ACE activity), 25 µM inhibitor, row C [2]: 394000
- fluorescence (ACE activity), 25 µM inhibitor, row D [2]: 413000
- fluorescence (ACE activity), 50 µM inhibitor, row A [2]: 278000
- fluorescence (ACE activity), 50 µM inhibitor, row B [2]: 292000
- fluorescence (ACE activity), 50 µM inhibitor, row C [2]: 326000
- fluorescence (ACE activity), 50 µM inhibitor, row D [2]: 343000
- fluorescence (ACE activity), 100 µM inhibitor, row A [2]: 168000
- fluorescence (ACE activity), 100 µM inhibitor, row B [2]: 181000
- fluorescence (ACE activity), 100 µM inhibitor, row C [2]: 194000
- fluorescence (ACE activity), 100 µM inhibitor, row D [2]: 204000
- fluorescence (ACE activity), 200 µM inhibitor, row A [2]: 101000
- fluorescence (ACE activity), 200 µM inhibitor, row B [2]: 108000
- fluorescence (ACE activity), 200 µM inhibitor, row C [2]: 109000
- fluorescence (ACE activity), 200 µM inhibitor, row D [2]: 114000
Binder: PLPEVPP [Peptid S548 (PLPEVPP)]
